Laboratory results reported in the supplement of paper PMC5998384.

Key:
HeLa Kyoto [1] = assay: melting temperature (median over replicates), in situ; higher = more thermally stable
HeLa Kyoto [2] = assay: thermal stability score vs G1/S (z-score of summed log2 fold changes over temperatures); higher = more thermally stable than in G1/S
[3] = cell cycle stage: early G1 (4.5 h after nocodazole release)
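Wherever melting temperature (median over replicates), in situ is given: HeLa Kyoto cells synchronized by double thymidine or nocodazole block, proteins quantified by TMT10plex mass spectrometry, three independent biological replicates.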
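Wherever thermal stability score vs G1/S (z-score of summed log2 fold changes over temperatures) is given: synchronized HeLa Kyoto cells, proteins quantified by TMT10plex mass spectrometry, three biological replicates, mitosis taken 0.5 h after nocodazole release, G1/S directly after double thymidine block.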

Sequence of UBE2V1 (chain, as listed by the source): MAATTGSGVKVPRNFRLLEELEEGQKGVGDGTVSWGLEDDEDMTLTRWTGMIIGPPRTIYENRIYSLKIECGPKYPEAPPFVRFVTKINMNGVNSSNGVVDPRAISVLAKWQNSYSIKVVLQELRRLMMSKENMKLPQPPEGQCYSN

Substance | melting temperature (HeLa Kyoto [1]; cell cycle stage: G1/S) [°C] | melting temperature (HeLa Kyoto [1]; cell cycle stage: mitosis) [°C] | thermal stability score (HeLa Kyoto [2]; [3]) | thermal stability score (HeLa Kyoto [2]; cell cycle stage: mitosis)
MAFLGLFSLLVLQSMATGATFPEEAIADLSVNMYNRLRATGEDENILFSPLSIALAMGMMELGAQGSTQKEIRHSMGYDSLKNGEEFSFLKEFSNMVTAKESQYVMKIANSLFVQNGFHVNEEFLQMMKKYFNAAVNHVDFSQNVAVANYINKWVENNTNNLVKDLVSPRDFDAATYLALINAVYFKGNWKSQFRPENTRTFSFTKDDESEVQIPMMYQQGEFYYGEFSDGSNEAGGIYQVLEIPYEGDEISMMLVLSRQEVPLATLEPLVKAQLVEEWANSVKKQKVEVYLPRFTVEQEIDLKDVLKALGITEIFIKDANLTGLSDNKEIFLSKAIHKSFLEVNEEGSEAAAVSGMIAISRMAVLYPQVIVDHPFFFLIRNRRTGTILFMGRVMHPETMNTSGHDFEEL [SERPINI1] | 57 | 57.8 | 0.548 | 1.27
ITM2B | 55.2 | 54.7 | 5.19 | 0.613
MVAPVWYLVAAALLVGFILFLTRSRGRAASAGQEPLHNEELAGAGRVAQPGPLEPEEPRAGGRPRRRRDLGSRLQAQRRAQRVAWAEADENEEEAVILAQEEEGVEKPAETHLSGKIGAKKLRKLEEKQARKAQREAEEAEREERKRLESQREAEWKKEEERLRLEEEQKEEEERKAREEQAQREHEEYLKLKEAFVVEEEGVGETMTEEQSQSFLTEFINYIKQSKVVLLEDLASQVGLRTQDTINRIQDLLAEGTITGVIDDRGKFIYITPEELAAVANFIRQRGRVSIAELAQASNSLIAWGRESPAQAPA [DDRGK1] | 52.9 | 52.9 | -0.767 | -0.701
MSPLSAARAALRVYAVGAAVILAQLLRRCRGGFLEPVFPPRPDRVAIVTGGTDGIGYSTAKHLARLGMHVIIAGNNDSKAKQVVSKIKEETLNDKVEFLYCDLASMTSIRQFVQKFKMKKIPLHVLINNAGVMMVPQRKTRDGFEEHFGLNYLGHFLLTNLLLDTLKESGSPGHSARVVTVSSATHYVAELNMDDLQSSACYSPHAAYAQSKLALVLFTYHLQRLLAAEGSHVTANVVDPGVVNTDVYKHVFWATRLAKKLLGWLLFKTPDEGAWTSIYAAVTPELEGVGGHYLYNEKETKSLHVTYNQKLQQQLWSKSCEMTGVLDVTL [DHRSX] | – | 52.9 | – | –
MSSKRTKTKTKKRPQRATSNVFAMFDQSQIQEFKEAFNMIDQNRDGFIDKEDLHDMLASLGKNPTDEYLDAMMNEAPGPINFTMFLTMFGEKLNGTDPEDVIRNAFACFDEEATGTIQEDYLRELLTTMGDRFTDEEVDELYREAPIDKKGNFNYIEFTRILKHGAKDKDD [MYL12A] | 54 | 52.7 | – | –
MAPGRAVAGLLLLAAAGLGGVAEGPGLAFSEDVLSVFGANLSLSAAQLQHLLEQMGAASRVGVPEPGQLHFNQCLTAEEIFSLHGFSNATQITSSKFSVICPAVLQQLNFHPCEDRPKHKTRPSHSEVWGYGFLSVTIINLASLLGLILTPLIKKSYFPKILTFFVGLAIGTLFSNAIFQLIPEAFGFDPKVDSYVEKAVAVFGGFYLLFFFERMLKMLLKTYGQNGHTHFGNDNFGPQEKTHQPKALPAINGVTCYANPAVTEANGHIHFDNVSVVSLQDGKKEPSSCTCLKGPKLSEIGTIAWMITLCDALHNFIDGLAIGASCTLSLLQGLSTSIAILCEEFPHELGDFVILLNAGMSTRQALLFNFLSACSCYVGLAFGILVGNNFAPNIIFALAGGMFLYISLADMFPEMNDMLREKVTGRKTDFTFFMIQNAGMLTGFTAILLITLYAGEIELE [SLC39A8] | 58.6 | – | – | –
TPK1 | 56.3 | 55.6 | – | –
MAAGQNGHEEWVGSAYLFVESSLDKVVLSDAYAHPQQKVAVYRALQAALAESGGSPDVLQMLKIHRSDPQLIVQLRFCGRQPCGRFLRAYREGALRAALQRSLAAALAQHSVPLQLELRAGAERLDALLADEERCLSCILAQQPDRLRDEELAELEDALRNLKCGSGARGGDGEVASAPLQPPVPSLSEVKPPPPPPPAQTFLFQGQPVVNRPLSLKDQQTFARSVGLKWRKVGRSLQRGCRALRDPALDSLAYEYEREGLYEQAFQLLRRFVQAEGRRATLQRLVEALEENELTSLAEDLLGLTDPNGGLA [TRADD] | 49.9 | – | – | –
MRRAGLGEGVPPGNYGNYGYANSGYSACEEENERLTESLRSKVTAIKSLSIEIGHEVKTQNKLLAEMDSQFDSTTGFLGKTMGKLKILSRGSQTKLLCYMMLFSLFVFFIIYWIIKLR [BET1] | 54.7 | 54.9 | – | –
MQPPPPGPLGDCLRDWEDLQQDFQNIQETHRLYRLKLEELTKLQNNCTSSITRQKKRLQELALALKKCKPSLPAEAEGAAQELENQMKERQGLFFDMEAYLPKKNGLYLSLVLGNVNVTLLSKQAKFAYKDEYEKFKLYLTIILILISFTCRFLLNSRVTDAAFNFLLVWYYCTLTIRESILINNGSRIKGWWVFHHYVSTFLSGVMLTWPDGLMYQKFRNQFLSFSMYQSFVQFLQYYYQSGCLYRLRALGERHTMDLTVEGFQSWMWRGLTFLLPFLFFGHFWQLFNALTLFNLAQDPQCKEWQVLMCGFPFLLLFLGNFFTTLRVVHHKFHSQRHGSKKD [TMEM120A] | 54.2 | 53.4 | – | –
MSRFFTTGSDSESESSLSGEELVTKPVGGNYGKQPLLLSEDEEDTKRVVRSAKDKRFEELTNLIRTIRNAMKIRDVTKCLEEFELLGKAYGKAKSIVDKEGVPRFYIRILADLEDYLNELWEDKEGKKKMNKNNAKALSTLRQKIRKYNRDFESHITSYKQNPEQSADEDAEKNEEDSEGSSDEDEDEDGVSAATFLKKKSEAPSGESRKFLKKMDDEDEDSEDSEDDEDWDTGSTSSDSDSEEEEGKQTALASRFLKKAPTTDEDKKAAEKKREDKAKKKHDRKSKRLDEEEEEDNEGGEWERVRGGVPLVKEKPKMFAKGTEITHAVVIKKLNEILQARGKKGTDRAAQIELLQLLVQIAAENNLGEGVIVKIKFNIIASLYDYNPNLATYMKPEMWGKCLDCINELMDILFANPNIFVGENILEESENLHNADQPLRVRGCILTLVERMDEEFTKIMQNTDPHSQEYVEHLKDEAQVCAIIERVQRYLEEKGTTEEVCRIYLLRILHTYYKFDYKAHQRQLTPPEGSSKSEQDQAENEGEDSAVLMERLCKYIYAKDRTDRIRTCAILCHIYHHALHSRWYQARDLMLMSHLQDNIQHADPPVQILYNRTMVQLGICAFRQGLTKDAHNALLDIQSSGRAKELLGQGLLLRSLQERNQEQEKVERRRQVPFHLHINLELLECVYLVSAMLLEIPYMAAHESDARRRMISKQFHHQLRVGERQPLLGPPESMREHVVAASKAMKMGDWKTCHSFIINEKMNGKVWDLFPEADKVRTMLVRKIQEESLRTYLFTYSSVYDSISMETLSDMFELDLPTVHSIISKMIINEELMASLDQPTQTVVMHRTEPTAQQNLALQLAEKLGSLVENNERVFDHKQGTYGGYFRDQKDGYRKNEGYMRRGGYRQQQSQTAY [EIF3CL] | 49 | 48.9 | – | –
MAGPAAAFRRLGALSGAAALGFASYGAHGAQFPDAYGKELFDKANKHHFLHSLALLGVPHCRKPLWAGLLLASGTTLFCTSFYYQALSGDPSIQTLAPAGGTLLLLGWLALAL [TMEM256] | – | 56.6 | – | –
MVGGGGVGGGLLENANPLIYQRSGERPVTAGEEDEQVPDSIDAREIFDLIRSINDPEHPLTLEELNVVEQVRVQVSDPESTVAVAFTPTIPHCSMATLIGLSIKVKLLRSLPQRFKMDVHITPGTHASEHAVNKQLADKERVAAALENTHLLEVVNQCLSARS [FAM96B] | 50.3 | 52.7 | – | –
MGFIFSKSMNESMKNQKEFMLMNARLQLERQLIMQSEMRERQMAMQIAWSREFLKYFGTFFGLAAISLTAGAIKKKKPAFLVPIVPLSFILTYQYDLGYGTLLERMKGEAEDILETEKSKLQLPRGMITFESIEKARKEQSRFFIDK [PLGRKT] | 56.5 | 55.5 | – | –
KIF1B | 50.5 | 52.2 | – | –
MDCEVNNGSSLRDECITNLLVFGFLQSCSDNSFRRELDALGHELPVLAPQWEGYDELQTDGNRSSHSRLGRIEADSESQEDIIRNIARHLAQVGDSMDRSIPPGLVNGLALQLRNTSRSEEDRNRDLATALEQLLQAYPRDMEKEKTMLVLALLLAKKVASHTPSLLRDVFHTTVNFINQNLRTYVRSLARNGMD [BID] | 52.8 | 55.5 | – | –
UBE2V1 | 54.2 | – | – | –
MNQENPPPYPGPGPTAPYPPYPPQPMGPGPMGGPYPPPQGYPYQGYPQYGWQGGPQEPPKTTVYVVEDQRRDELGPSTCLTACWTALCCCCLWDMLT [CYSTM1] | 59 | 52.8 | – | –
MLLATLLLLLLGGALAHPDRIIFPNHACEDPPAVLLEVQGTLQRPLVRDSRTSPANCTWLILGSKEQTVTIRFQKLHLACGSERLTLRSPLQPLISLCEAPPSPLQLPGGNVTITYSYAGARAPMGQGFLLSYSQDWLMCLQEEFQCLNHRCVSAVQRCDGVDACGDGSDEAGCSSDPFPGLTPRPVPSLPCNVTLEDFYGVFSSPGYTHLASVSHPQSCHWLLDPHDGRRLAVRFTALDLGFGDAVHVYDGPGPPESSRLLRSLTHFSNGKAVTVETLSGQAVVSYHTVAWSNGRGFNATYHVRGYCLPWDRPCGLGSGLGAGEGLGERCYSEAQRCDGSWDCADGTDEEDCPGCPPGHFPCGAAGTSGATACYLPADRCNYQTFCADGADERRCRHCQPGNFRCRDEKCVYETWVCDGQPDCADGSDEWDCSYVLPRKVITAAVIGSLVCGLLLVIALGCTCKLYAIRTQEYSIFAPLSRMEAEIVQQQAPPSYGQLIAQGAIPPVEDFPTENPNDNSVLGNLRSLLQILRQDMTPGGGPGARRRQRGRLMRRLVRRLRRWGLLPRTNTPARASEARSQVTPSAAPLEALDGGTGPAREGGAVGGQDGEQAPPLPIKAPLPSASTSPAPTTVPEAPGPLPSLPLEPSLLSGVVQALRGRLLPSLGPPGPTRSPPGPHTAVLALEDEDDVLLVPLAEPGVWVAEAEDEPLLT [LRP10] | 54.7 | – | – | –
MGGCVGAQHDSSGSLNENSEGTGVALGRNQPLKKEKPKWKSDYPMTDGQLRSKRDEFWDTAPAFEGRKEIWDALKAAAHAFESNDHELAQAIIDGANITLPHGALTECYDELGNRYQLPVYCLAPPINMIEEKSDIETLDIPEPPPNSGYECQLRLRLSTGKDLKLVVRSTDTVFHMKRRLHAAEGVEPGSQRWFFSGRPLTDKMKFEELKIPKDYVVQVIVSQPVQNPTPVEN [UBTD2] | – | 53.7 | – | –
MENGAVYSPTTEEDPGPARGPRSGLAAYFFMGRLPLLRRVLKGLQLLLSLLAFICEEVVSQCTLCGGLYFFEFVSCSAFLLSLLILIVYCTPFYERVDTTKVKSSDFYITLGTGCVFLLASIIFVSTHDRTSAEIAAIVFGFIASFMFLLDFITMLYEKRQESQLRKPENTTRAEALTEPLNA [CMTM6] | 55.6 | – | – | –
MLGSRAAGFARGLRAVALAWLPGWRGRSFALARAAGAPHGGDLQPPACPEPRGRQLSLSAAAVVDSAPRPLQPYLRLMRLDKPIGTWLLYLPCTWSIGLAAEPGCFPDWYMLSLFGTGAILMRGAGCTINDMWDQDYDKKVTRTANRPIAAGDISTFQSFVFLGGQLTLALGVLLCLNYYSIALGAGSLLLVITYPLMKRISYWPQLALGLTFNWGALLGWSAIKGSCDPSVCLPLYFSGVMWTLIYDTIYAHQDKRDDVLIGLKSTALRFGENTKPWLSGFSVAMLGALSLVGVNSGQTAPYYAALGAVGAHLTHQIYTLDIHRPEDCWNKFISNRTLGLIVFLGIVLGNLWKEKKTDKTKKGIENKIEN [COQ2] | 55.1 | – | – | –
